What was measured:
[1] = target: HCV NS3/NS4A protease complex (NS3 protease domain residues 1-182 preincubated with synthetic NS4A cofactor peptide) (hepatitis C virus); test: single-turnover cleavage kinetics (Western blot of remaining substrate); 0.1 μM IKKε with 5 μM NS3 + 244 μM NS4A peptide, 23 °C, digestion buffer (50 mM HEPES pH 7.8, 0.5 mM EDTA, 25% glycerol, 10 mM DTT, 0.25 M KCl, 0.05 M NaCl, 0.2% CHAPS); Kd estimated by Equation (2) from the constant c of the single-exponential fit, assumed to be unbound kinase
[2] = target: HCV NS3/NS4A protease complex (NS3 protease domain residues 1-182 preincubated with synthetic NS4A cofactor peptide) (hepatitis C virus); test: single-turnover cleavage kinetics (Western blot of remaining substrate); 0.5 μM IKKε with 5 μM NS3 + 244 μM NS4A peptide, 23 °C, digestion buffer (50 mM HEPES pH 7.8, 0.5 mM EDTA, 25% glycerol, 10 mM DTT, 0.25 M KCl, 0.05 M NaCl, 0.2% CHAPS); Kd estimated by Equation (2) from the constant c of the single-exponential fit, assumed to be unbound kinase

Recombinant human IKKε (Inhibitor of κB kinase ε) (from UniProt Q14164 1-716) (enzyme)
Kd [1]: 4.57 µM
Kd [2]: 1.68 µM

Reference: article PMC9913602
